The values below come from paper PMC8280646.

This assay has as its target His-tagged hACE2 protein (human) (UniProt Q9BYF1). Description: SPR. (In general: SPR reads the build-up and loss of mass on a sensor chip optically.)

Like-named read-outs stand apart in the source and are kept apart here.

Chain of His-tagged hACE2 protein (human) (Q9BYF1 18-740): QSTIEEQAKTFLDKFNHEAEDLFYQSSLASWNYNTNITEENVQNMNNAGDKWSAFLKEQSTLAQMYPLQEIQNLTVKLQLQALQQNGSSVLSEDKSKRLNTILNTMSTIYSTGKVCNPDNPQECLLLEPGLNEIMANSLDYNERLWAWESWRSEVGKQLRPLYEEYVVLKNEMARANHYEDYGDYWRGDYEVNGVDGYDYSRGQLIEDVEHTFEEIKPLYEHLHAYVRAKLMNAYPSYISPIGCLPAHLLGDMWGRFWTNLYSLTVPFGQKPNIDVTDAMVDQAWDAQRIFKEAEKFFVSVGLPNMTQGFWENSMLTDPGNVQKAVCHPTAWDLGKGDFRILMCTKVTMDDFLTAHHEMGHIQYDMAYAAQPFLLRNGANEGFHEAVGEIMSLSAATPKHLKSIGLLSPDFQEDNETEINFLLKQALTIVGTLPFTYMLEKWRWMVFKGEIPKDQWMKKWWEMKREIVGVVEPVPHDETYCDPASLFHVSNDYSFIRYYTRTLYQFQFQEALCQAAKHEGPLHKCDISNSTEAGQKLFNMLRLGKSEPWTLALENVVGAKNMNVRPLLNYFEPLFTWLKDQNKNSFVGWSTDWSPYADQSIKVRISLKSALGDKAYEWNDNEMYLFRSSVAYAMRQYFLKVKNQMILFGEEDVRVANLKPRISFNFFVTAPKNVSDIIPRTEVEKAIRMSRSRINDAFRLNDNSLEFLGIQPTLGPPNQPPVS

In general, Kd refers to the concentration at which binding is half-saturated. High values mean a looser complex, low ones a tighter complex. Consider Human IFNα-RBD-Fc, for which the Kd was determined as 12.3 nM.

Under “Fc fusion”, “mouse IFNα-Pan-RBD-Fc fusion protein (I-P-R-F) (from UniProt P0DTC2 319-541)” returned a Kd of 11 nM.

RBD-Fc showed a Kd of 11.5 nM.

Regarding RBD, the Kd turned out to be 7.98 nM.
